The results in this text go back to publication PMC9455977, “Deciphering the Regulatory Circuits of RA3 Replication Module - Mechanisms of the Copy Number Control”.

The data set concerns RepA D76V (plasmid RA3 (IncU, isolated from Aeromonas hydrophila)). Nature of the data set: EMSA. The note with it: 25 mM Tris-HCl pH 8.0, 5 mM MgCl2, 40 mM NaCl, 0.5 mg/mL BSA, 30 min at 37 C, 20 uL; 30 ng PCR fragment (0.8% agarose) or 150 ng ds oligo (10% native PAGE) …. For orientation: In EMSA bound probe runs differently from free probe, usually more slowly.

repAp 256 bp PCR fragment yielded a binding signal (fold lower affinity than WT RepA) of 5.
